# Laboratory results as given in the Immune Epitope Database (IEDB).
# Molecular target: HLA-B*51:01
# Experiment: IEDB peptide-MHC binding, purified MHC/competitive/radioactivity; ≥ and ≤ were set here for values at or beyond the usual limits of such assays
# Conditions: source organism: Homo sapiens
row,IC50 [nM],Sequence
1,6.5,DAPLNIRSI
2,31,DAYPQRIKF
3,12.6,DGLRDLPSI

# Second part, the sequence before the results:
row,Sequence,IC50 [nM]
1,DGLLRVLTV,0.2
2,DGYVVKETI,13.4
3,IIYPTPKVV,38
4,TPESKIRFV,84.8
5,VALLVGEKV,144
6,VPPLVPKVL,56.3
7,YIIEREPLI,1790

# Molecular target: HLA-B*54:01
# Experiment: as above
# Conditions: source organism: Homo sapiens
row,IC50 [nM],Sequence
1,16.4,FPKETFEGP
2,12.2,FVEILIPVA
3,16.6,SAPVNFISA
4,1.7,YPVYQPVGP

# Molecular target: HLA-A*01:01
# Experiment: as above
# Conditions: source organism: Homo sapiens
row,IC50 [nM],Sequence
1,1.3,FLWPEAFLY
2,70.6,KLDLLEQEY
3,11.1,YVPEHWEYY

# Continued, sequence first:
row,Sequence,IC50 [nM]
1,ATDGKVLLW,191
2,DTEFPNFKY,80.8

# Molecular target: HLA-A*29:02
# Experiment: as above
# Conditions: source organism: Homo sapiens
row,IC50 [nM],Sequence
1,0.2,FYPELKLAY
2,29.7,GLPDLVAKY
3,1.6,HFLDRHLVF
4,4.6,LPLDIQIFY
5,2.6,YLPALKVEY
